Source: article PMC6872814, “Functional interactions between nitrite reductase and nitric oxide reductase from Paracoccus denitrificans” (Scientific Reports, 2019)

How the values were obtained:
[1] = biological target: the molecule itself; test: fluorescence correlation spectroscopy (photon count-rate per molecule, CPM); increasing concentrations of cd1NiR-STAR 635 alone; CPM fitted with the ligand-binding model (Eq. 2); apparent; monomer to dimer; points above 15 nM not in the fit
[2] = biological target: the molecule itself; test: fluorescence correlation spectroscopy (photon count-rate per molecule, CPM); increasing concentrations of cd1NiR-STAR 635 with 40 nM unlabelled cNOR in the solution; CPM fitted with the ligand-binding model (Eq. 2); apparent; monomer to dimer

B1: cytochrome cd1 nitrite reductase (cd1NiR) from Paracoccus pantotrophus, labelled with Abberior STAR 635 (enzyme, UniProt P72181 30-596, looked up)
chain: QEQVAPPKDPAAALEDHKTRTDNRYEPSLDNLAQQDVAAPGAPEGVSALSDAQYNEANKIYFERCAGCHGVLRKGATGKALTPDLTRDLGFDYLQSFITYGSPAGMPNWGTSGELSAEQVDLMANYLLLDPAAPPEFGMKEMRESWKVHVAPEDRPTQQENDWDLENLFSVTLRDAGQIALIDGATYEIKSVLDTGYAVHISRLSASGRYLFVIGRDGKVNMIDLWMKEPTTVAEIKIGSEARSIETSKMEGWEDKYAIAGAYWPPQYVIMDGETLEPKKIQSTRGMTYDEQEYHPEPRVAAILASHYRPEFIVNVKETGKILLVDYTDLDNLKTTEISAERFLHDGGLDGSHRYFITAANARNKLVVIDTKEGKLVAIEDTGGQTPHPGRGANFVHPTFGPVWATSHMGDDSVALIGTDPEGHPDNAWKILDSFPALGGGSLFIKTHPNSQYLYVDATLNPEAEISGSVAVFDIKAMTGDGSDPEFKTLPIAEWAGITEGQPRVVQGEFNKDGTEVWFSVWNGKDQESALVVVDDKTLELKHVIKDERLVTPTGKFNVYNTMTDTY
modifications: Abberior STAR 635 (amino-reactive dye, 5-fold molar excess; sites not stated); heme c and heme d1
notes: cytochrome cd1 nitrite reductase (cd1NiR), Paracoccus pantotrophus (G6), soluble periplasmic protein; 97% identical to the P. denitrificans enzyme; STAR 635-labelled in the fluorescence experiments; the activity assays (functional rows) used the same protein unlabelled; Written as the monomer chain; also called cd1NiR-STAR 635; cd1NIR-STAR 635
B1 was tested, and the Kd [1] was 3.5 ± 0.1 nM and the Kd [2] was 5.3 ± 0.2 nM.
